# Measured values published in patent US20140206607A1 (INDIANA UNIVERSITY RESEARCH AND TECHNOLOGY, published 2014).
# Numbered stars: 1 amine (or outer) side, 2 acyl side, 3 side chain; on linkers, the order of the positions; unused ones are H or OH. Square brackets hold non-standard residues; d marks the D form. Side chains are listed from the residue outwards. Ends that are not written are not given here. * marks the point of attachment. 40K‑TE PEG = 40 kDa PEG covalently bound via thioether, formed by reaction of the free thiol of the peptide (Cys side chain) with an iodoacetic-functionalized PEG; γGlu = O=C(O)[C@H](CCC(=O)[*:2])N[*:1]; Palmitoyl = CCCCCCCCCCCCCCCC(=O)*; Aib = CC(C)(N)C(=O)O
# T1: GIP receptor (UniProt P48546 22-466)
# T1 sequence (looked up): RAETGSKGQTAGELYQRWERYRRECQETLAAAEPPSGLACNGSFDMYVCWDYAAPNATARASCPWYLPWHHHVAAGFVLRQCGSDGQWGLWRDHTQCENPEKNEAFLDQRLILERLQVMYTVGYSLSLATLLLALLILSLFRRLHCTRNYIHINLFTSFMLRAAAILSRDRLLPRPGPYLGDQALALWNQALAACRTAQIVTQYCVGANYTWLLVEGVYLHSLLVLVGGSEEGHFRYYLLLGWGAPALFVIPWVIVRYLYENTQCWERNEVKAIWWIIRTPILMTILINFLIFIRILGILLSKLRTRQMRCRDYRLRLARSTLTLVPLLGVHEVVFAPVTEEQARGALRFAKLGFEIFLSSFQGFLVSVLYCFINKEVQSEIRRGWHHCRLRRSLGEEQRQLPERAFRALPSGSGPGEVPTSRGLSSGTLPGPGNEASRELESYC
# B1: peptide of SEQ ID NO: 25 (peptide)
# peptide: H[Aib]QGTFTSDK([γGlu-γGlu-Palmitoyl])SKYLD[Aib]RAAQDFVQWLKDGRP-NH2
# modifications: N-terminus assumed
# SMILES: CCCCCCCCCCCCCCCC(=O)N[C@@H](CCC(=O)N[C@@H](CCC(=O)NCCCC[C@H](NC(=O)[C@H](CC(=O)O)NC(=O)[C@H](CO)NC(=O)[C@@H](NC(=O)[C@H](Cc1ccccc1)NC(=O)[C@@H](NC(=O)CNC(=O)[C@H](CCC(N)=O)NC(=O)C(C)(C)NC(=O)[C@@H](N)Cc1c[nH]cn1)[C@@H](C)O)[C@@H](C)O)C(=O)N[C@@H](CO)C(=O)N[C@@H](CCCCN)C(=O)N[C@@H](Cc1ccc(O)cc1)C(=O)N[C@@H](CC(C)C)C(=O)N[C@@H](CC(=O)O)C(=O)NC(C)(C)C(=O)N[C@@H](CCCNC(=N)N)C(=O)N[C@@H](C)C(=O)N[C@@H](C)C(=O)N[C@@H](CCC(N)=O)C(=O)N[C@@H](CC(=O)O)C(=O)N[C@@H](Cc1ccccc1)C(=O)N[C@H](C(=O)N[C@@H](CCC(N)=O)C(=O)N[C@@H](Cc1c[nH]c2ccccc12)C(=O)N[C@@H](CC(C)C)C(=O)N[C@@H](CCCCN)C(=O)N[C@@H](CC(=O)O)C(=O)NCC(=O)N[C@@H](CCCNC(=N)N)C(=O)N1CCC[C@H]1C(N)=O)C(C)C)C(=O)O)C(=O)O
# B2: peptide of SEQ ID NO: 24 (peptide)
# peptide: H[Aib]QGTFTSDK([γGlu-γGlu-Palmitoyl])SKYLD[Aib]RAAQDFVQWLKDGRG-NH2
# modifications: N-terminus assumed
# SMILES: CCCCCCCCCCCCCCCC(=O)N[C@@H](CCC(=O)N[C@@H](CCC(=O)NCCCC[C@H](NC(=O)[C@H](CC(=O)O)NC(=O)[C@H](CO)NC(=O)[C@@H](NC(=O)[C@H](Cc1ccccc1)NC(=O)[C@@H](NC(=O)CNC(=O)[C@H](CCC(N)=O)NC(=O)C(C)(C)NC(=O)[C@@H](N)Cc1c[nH]cn1)[C@@H](C)O)[C@@H](C)O)C(=O)N[C@@H](CO)C(=O)N[C@@H](CCCCN)C(=O)N[C@@H](Cc1ccc(O)cc1)C(=O)N[C@@H](CC(C)C)C(=O)N[C@@H](CC(=O)O)C(=O)NC(C)(C)C(=O)N[C@@H](CCCNC(=N)N)C(=O)N[C@@H](C)C(=O)N[C@@H](C)C(=O)N[C@@H](CCC(N)=O)C(=O)N[C@@H](CC(=O)O)C(=O)N[C@@H](Cc1ccccc1)C(=O)N[C@H](C(=O)N[C@@H](CCC(N)=O)C(=O)N[C@@H](Cc1c[nH]c2ccccc12)C(=O)N[C@@H](CC(C)C)C(=O)N[C@@H](CCCCN)C(=O)N[C@@H](CC(=O)O)C(=O)NCC(=O)N[C@@H](CCCNC(=N)N)C(=O)NCC(N)=O)C(C)C)C(=O)O)C(=O)O
# B3: peptide of SEQ ID NO: 26 (peptide)
# peptide: H[Aib]QGTFTSDK([γGlu-γGlu-Palmitoyl])SKYLD[Aib]RAAQDFVQWLK[Aib]GRG-NH2
# modifications: N-terminus assumed
# SMILES: CCCCCCCCCCCCCCCC(=O)N[C@@H](CCC(=O)N[C@@H](CCC(=O)NCCCC[C@H](NC(=O)[C@H](CC(=O)O)NC(=O)[C@H](CO)NC(=O)[C@@H](NC(=O)[C@H](Cc1ccccc1)NC(=O)[C@@H](NC(=O)CNC(=O)[C@H](CCC(N)=O)NC(=O)C(C)(C)NC(=O)[C@@H](N)Cc1c[nH]cn1)[C@@H](C)O)[C@@H](C)O)C(=O)N[C@@H](CO)C(=O)N[C@@H](CCCCN)C(=O)N[C@@H](Cc1ccc(O)cc1)C(=O)N[C@@H](CC(C)C)C(=O)N[C@@H](CC(=O)O)C(=O)NC(C)(C)C(=O)N[C@@H](CCCNC(=N)N)C(=O)N[C@@H](C)C(=O)N[C@@H](C)C(=O)N[C@@H](CCC(N)=O)C(=O)N[C@@H](CC(=O)O)C(=O)N[C@@H](Cc1ccccc1)C(=O)N[C@H](C(=O)N[C@@H](CCC(N)=O)C(=O)N[C@@H](Cc1c[nH]c2ccccc12)C(=O)N[C@@H](CC(C)C)C(=O)N[C@@H](CCCCN)C(=O)NC(C)(C)C(=O)NCC(=O)N[C@@H](CCCNC(=N)N)C(=O)NCC(N)=O)C(C)C)C(=O)O)C(=O)O
# B4: peptide of SEQ ID NO: 23 (peptide)
# peptide: H[Aib]QGTFTSDK([γGlu-γGlu-Palmitoyl])SKYLD[Aib]RAAQDFVQWLMKGRG-NH2
# modifications: N-terminus assumed
# SMILES: CCCCCCCCCCCCCCCC(=O)N[C@@H](CCC(=O)N[C@@H](CCC(=O)NCCCC[C@H](NC(=O)[C@H](CC(=O)O)NC(=O)[C@H](CO)NC(=O)[C@@H](NC(=O)[C@H](Cc1ccccc1)NC(=O)[C@@H](NC(=O)CNC(=O)[C@H](CCC(N)=O)NC(=O)C(C)(C)NC(=O)[C@@H](N)Cc1c[nH]cn1)[C@@H](C)O)[C@@H](C)O)C(=O)N[C@@H](CO)C(=O)N[C@@H](CCCCN)C(=O)N[C@@H](Cc1ccc(O)cc1)C(=O)N[C@@H](CC(C)C)C(=O)N[C@@H](CC(=O)O)C(=O)NC(C)(C)C(=O)N[C@@H](CCCNC(=N)N)C(=O)N[C@@H](C)C(=O)N[C@@H](C)C(=O)N[C@@H](CCC(N)=O)C(=O)N[C@@H](CC(=O)O)C(=O)N[C@@H](Cc1ccccc1)C(=O)N[C@H](C(=O)N[C@@H](CCC(N)=O)C(=O)N[C@@H](Cc1c[nH]c2ccccc12)C(=O)N[C@@H](CC(C)C)C(=O)N[C@@H](CCSC)C(=O)N[C@@H](CCCCN)C(=O)NCC(=O)N[C@@H](CCCNC(=N)N)C(=O)NCC(N)=O)C(C)C)C(=O)O)C(=O)O
# B5: peptide of SEQ ID NO: 27 (peptide)
# peptide: H[dS]QGTFTSDK([γGlu-Palmitoyl])SKYLDERAAQDFVQWLLKGRG-NH2
# modifications: N-terminus assumed
# SMILES: CCCCCCCCCCCCCCCC(=O)N[C@@H](CCC(=O)NCCCC[C@H](NC(=O)[C@H](CC(=O)O)NC(=O)[C@H](CO)NC(=O)[C@@H](NC(=O)[C@H](Cc1ccccc1)NC(=O)[C@@H](NC(=O)CNC(=O)[C@H](CCC(N)=O)NC(=O)[C@@H](CO)NC(=O)[C@@H](N)Cc1c[nH]cn1)[C@@H](C)O)[C@@H](C)O)C(=O)N[C@@H](CO)C(=O)N[C@@H](CCCCN)C(=O)N[C@@H](Cc1ccc(O)cc1)C(=O)N[C@@H](CC(C)C)C(=O)N[C@@H](CC(=O)O)C(=O)N[C@@H](CCC(=O)O)C(=O)N[C@@H](CCCNC(=N)N)C(=O)N[C@@H](C)C(=O)N[C@@H](C)C(=O)N[C@@H](CCC(N)=O)C(=O)N[C@@H](CC(=O)O)C(=O)N[C@@H](Cc1ccccc1)C(=O)N[C@H](C(=O)N[C@@H](CCC(N)=O)C(=O)N[C@@H](Cc1c[nH]c2ccccc12)C(=O)N[C@@H](CC(C)C)C(=O)N[C@@H](CC(C)C)C(=O)N[C@@H](CCCCN)C(=O)NCC(=O)N[C@@H](CCCNC(=N)N)C(=O)NCC(N)=O)C(C)C)C(=O)O
# B6: peptide of SEQ ID NO: 22 (peptide)
# peptide: H[Aib]QGTFTSDK([γGlu-γGlu-Palmitoyl])SKYLD[Aib]RAAQDFVQWLMDGRG-NH2
# modifications: N-terminus assumed
# SMILES: CCCCCCCCCCCCCCCC(=O)N[C@@H](CCC(=O)N[C@@H](CCC(=O)NCCCC[C@H](NC(=O)[C@H](CC(=O)O)NC(=O)[C@H](CO)NC(=O)[C@@H](NC(=O)[C@H](Cc1ccccc1)NC(=O)[C@@H](NC(=O)CNC(=O)[C@H](CCC(N)=O)NC(=O)C(C)(C)NC(=O)[C@@H](N)Cc1c[nH]cn1)[C@@H](C)O)[C@@H](C)O)C(=O)N[C@@H](CO)C(=O)N[C@@H](CCCCN)C(=O)N[C@@H](Cc1ccc(O)cc1)C(=O)N[C@@H](CC(C)C)C(=O)N[C@@H](CC(=O)O)C(=O)NC(C)(C)C(=O)N[C@@H](CCCNC(=N)N)C(=O)N[C@@H](C)C(=O)N[C@@H](C)C(=O)N[C@@H](CCC(N)=O)C(=O)N[C@@H](CC(=O)O)C(=O)N[C@@H](Cc1ccccc1)C(=O)N[C@H](C(=O)N[C@@H](CCC(N)=O)C(=O)N[C@@H](Cc1c[nH]c2ccccc12)C(=O)N[C@@H](CC(C)C)C(=O)N[C@@H](CCSC)C(=O)N[C@@H](CC(=O)O)C(=O)NCC(=O)N[C@@H](CCCNC(=N)N)C(=O)NCC(N)=O)C(C)C)C(=O)O)C(=O)O
# Target: glucagon receptor (UniProt P47871 26-477, limits assumed)
# Experiment: cell-based or functional assay
# Sequence of glucagon receptor (P47871 26-477 limits assumed): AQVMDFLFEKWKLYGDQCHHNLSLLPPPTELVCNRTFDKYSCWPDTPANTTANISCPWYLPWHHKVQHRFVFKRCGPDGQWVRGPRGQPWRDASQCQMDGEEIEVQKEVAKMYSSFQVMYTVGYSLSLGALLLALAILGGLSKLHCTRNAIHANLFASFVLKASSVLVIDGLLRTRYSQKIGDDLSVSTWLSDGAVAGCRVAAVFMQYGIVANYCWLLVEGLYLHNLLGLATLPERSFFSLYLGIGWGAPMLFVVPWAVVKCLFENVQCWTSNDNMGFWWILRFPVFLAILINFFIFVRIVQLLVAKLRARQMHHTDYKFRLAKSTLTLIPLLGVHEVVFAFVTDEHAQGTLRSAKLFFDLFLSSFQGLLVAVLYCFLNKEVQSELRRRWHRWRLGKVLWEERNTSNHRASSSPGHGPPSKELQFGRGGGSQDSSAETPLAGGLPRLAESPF
row,Binder,EC50 (nM) at glucagon receptor
1,B1,0.035 nM
2,B2,0.021 nM
3,H[Aib]QGTFTSDYSKYLDERRA[Aib]EFVC(40K‑TE PEG)WLLDT-NH2 [peptide of SEQ ID NO: 14],0.365 nM
4,B3,0.106 nM
5,B4,0.023 nM
6,B5,0.022 nM
7,B6,0.005 nM

# Target: GLP-1 receptor (UniProt P43220 24-463, limits assumed)
# Experiment: cell-based or functional assay
row,Binder,EC50 (nM) at GLP-1 receptor
1,B1,0.003 nM
2,B2,0.004 nM
3,H[Aib]QGTFTSDYSKYLDERRA[Aib]EFVC(40K‑TE PEG)WLLDT-NH2 [peptide of SEQ ID NO: 14],0.076 nM
4,B3,0.004 nM
5,B4,0.004 nM
6,B5,0.005 nM
7,B6,0.002 nM

# Target: T1, GIP receptor
# Experiment: cell-based or functional assay
row,Binder,EC50 (nM) at GIP receptor
1,B1,2.36 nM
2,B2,1.46 nM
3,H[Aib]QGTFTSDYSKYLDERRA[Aib]EFVC(40K‑TE PEG)WLLDT-NH2 [peptide of SEQ ID NO: 14],33.7 nM
4,B3,3.29 nM
5,B4,1.58 nM
6,B5,2.12 nM
7,B6,2.37 nM
